The labels stand for the following.
B1: 19B3-B3 (antibody, V domains shown)
VH: QVQLVQSGAEVKKPGASVKVSCMASGYTFTNYAIHWVRQAPGQRLEWMGWINTGLGKPKYSQMFQDRVTITRDTSASTASMELSGLRSDDTAVYYCARVGWELYFDYWGQGTLVTVSS
VL: DIQMTQSPSTLSASVGDRVTITCRASQSISSLLAWYQQKPGKAPKLLIYKASSLESGVPSRFSGSGSGTEFTLTISSLQPDDFATYFCQQYNSYWTFGQGTKVEIK
notes: Both formats under this entry
B2: 10A9-D2 (antibody, V domains shown)
VH: QVQLQESGPGLVKPSETLSLTCAVSGGSISSSYWWSWVRQPPGKGLEWVGEVFHVGVTNYNPSLKSRVTISVDKSKNQFSLKLTSVTAADTAVYYCARVTGTTGYYHGLDVWGQGTTVTVFS
VL: DIQMTQSPSSLSASVGDRVTITCRASQGIRNDLGWYQQKPGKVPKRLIYAASSLQSGIPSRFSGSGSGTEFTLTISSLQPEDFATYYCLQHNNYPRTFGQGTKVEIK
notes: Both formats under this entry
B3: 7H5-C5 (antibody, V domains shown)
VH: QVQLVESGGGLVKPGGSLRLSCAASGFSLSDYYMSWTRQAPGRGLEWVSFISSSGSTIYYVDSVKGRFTISRDHAKNSLYLQINSLRAEDTAVYYCARAQWLPDFDYWGQGTLVTVSS
VL: QSALTQPPSASGSPGQSVTISCTGTSSDVSGYNYVSWYQHHPDKAPKLLIYEVNKRPSGVPARFSGSKSGNTASLTVSGLQAEDEADYYCTSFADNNNVVFGGGTKLTVLG
notes: Both formats under this entry
B4: 9A3-C7 (antibody, V domains shown)
VH: B3 VH with T37I, F50Y, H74N, Y95H
VL: B3 VL with S30G, D43G, A45V, L49M, N54S, A62D, V100G
notes: Both formats under this entry
B5: 12A1-D4 (antibody, V domains shown)
VH: QVQLQESGPGLVKPSGTLSLTCAVSGGSISSNNWWSWVRQPPGKGLEWIGEIFHVGSTNYNPSLKSRVTISVDKSKNQFSLKLSSLTAADTAVYYCARMVGATGHYYGMDVWGQGTTVTVSS
VL: DIQLTQSPSFLSASVGDRVTITCRASQGISSSLAWYQQKPGKAPKFLIYAASTLQSGVPSRFSGSGSGTEFTLTISSLQPEDFATYYCQQLNSYPKSWTFGQGTKVEIK
notes: Both formats under this entry
B6: 2-19H2 (antibody, V domains shown)
VH: B1 VH with M23K, M63L
VL: B1 VL with S28T, L32W, K45N, F87Y, N92Y
notes: VH of 19B3-B3 M23K.M63L.HC with VL of 2C4-E4; kappa; also called 2-H192

Substitutions are numbered along the chain they refer to. In names and notes the source's numbering stands.

One assay has as its target T1, human PD-L2 (full-length, on cells) (human, UniProt Q9BQ51 20-273).
T1 chain: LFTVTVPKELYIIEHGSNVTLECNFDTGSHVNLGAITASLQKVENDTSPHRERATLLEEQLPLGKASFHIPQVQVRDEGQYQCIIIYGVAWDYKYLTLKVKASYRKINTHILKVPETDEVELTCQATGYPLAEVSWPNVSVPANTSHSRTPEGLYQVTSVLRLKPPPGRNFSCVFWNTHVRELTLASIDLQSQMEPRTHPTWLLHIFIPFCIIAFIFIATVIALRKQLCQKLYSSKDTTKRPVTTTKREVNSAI
The assay can be described thus: FACS binding to CHO-K1 cells expressing human PD-L2. An outline of the steps: (§1)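 Binding to CHO-K1 cells stably expressing full-length human PD-L2 was measured by flow cytometry on a BD FACSCalibur. They were then stained for 20 min at 4° C with APC-labelled anti-rat IgG or anti-human IgG Fc, matching the antibody format. Binding EC50 came from non-linear curve fitting of percentage of maximal binding against concentration in GraphPad Prism.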
For orientation: In flow cytometry, cells or beads pass a laser one at a time.
For orientation: EC50 means the concentration giving half of the maximal effect. B1: a half-maximal response (EC50) required 0.37 nM.

Consider B2, for which a half-maximal response (EC50) required 0.32 nM.

The next assay concerns the target T2, mouse PD-L2 (full-length, on cells) (mouse, UniProt Q9WUL5 20-247).
T2 construct: whole, on cells; HEK293 cells stably expressing full-length mouse PD-L2
T2 sequence (looked up): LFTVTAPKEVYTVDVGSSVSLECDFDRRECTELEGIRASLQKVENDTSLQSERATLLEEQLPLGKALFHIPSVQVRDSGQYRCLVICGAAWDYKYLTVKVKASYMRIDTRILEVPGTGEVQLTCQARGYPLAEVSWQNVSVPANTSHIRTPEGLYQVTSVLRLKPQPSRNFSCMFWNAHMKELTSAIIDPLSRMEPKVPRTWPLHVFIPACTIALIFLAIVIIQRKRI
Briefly: FACS on HEK293 cells stably expressing full-length mouse PD-L2. The procedure: (§2) The ability of anti-PD-L2 antibodies binding to mouse PD-L2, human PD-L1 or cyno PD-L2 was determined by FACS. HEK293 cells stably expressing full-length monkey PD-L2, mouse PD-L2 or human PD-L1 were established, subcloned and verified. For binding assay, 1.5×10⁵ cells in 100 μl of FACSwash buffer were incubated with individual anti-PD-L2 antibodies (0.5 μg/ml) for 30 min. After three times of washing, the cells were re-suspended in FACSwash buffer containing FITC-labelled goat-anti-rat IgG (Thermo Fisher, 1:1000) or APC-labelled goat-anti-ratIgG (Biolegend, Clone Poly4054) at a 1:2000 dilution for 20 min at 4° C., washed three times and subsequently subjected to FACS analysis. FACS data was analysed using FlowJo Software and depicted as histograms including secondary antibody only controls.
As to B3, the binding result is listed as “no binding (tested: 0.5 µg/ml)”.

In the case of B4, the binding result is “no binding (tested: 0.5 µg/ml)”.

Take B5: the binding result is reported as “no binding (tested: 0.5 µg/ml)”.

For B1, the binding result was “no binding (tested: 0.5 µg/ml)”.

Take B2: the binding result is “no binding (tested: 0.5 µg/ml)”.

The target of the next assay is T1, human PD-L2 (full-length, on cells). The assay can be described thus: FACS, NCI-H226 cells. An outline of the steps:
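Binding to endogenous PD-L2 on NCI-H226 human lung squamous carcinoma cells (1.5×10⁵) was measured by flow cytometry on a BD FACSCalibur. They were then stained with APC-labelled goat anti-rat IgG (1:2000) for 20 min at 4° C. Binding EC50 came from non-linear fitting of percentage of maximal binding against concentration in GraphPad Prism.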
Molecule B3 gave an EC50 of 0.517 nM.

In turn, B4 had a half-maximal effective concentration (EC50) of 0.644 nM.

For the molecule B5, the midpoint of the response, the EC50, lay at 0.0989 nM.

Take B1: the EC50 was determined as 0.177 nM.

B2 returned a 50% effective concentration (EC50) of 0.0776 nM.

The target in another assay is T3, human PD-L2 (full-length, on cells) (human, UniProt Q9BQ51 20-273).
T3 construct: whole, on cells; CHO-K1 cells stably expressing full-length human PD-L2; also endogenous on NCI-H226 and transfected in Jurkat cells; also called hPD-L2; CHO-K1/hPD-L2
T3 sequence (looked up): T1 chain
The assay can be described thus: FACS binding on cells expressing human PD-L2 (per the examples).
As to B6, the binding result was “binds”.

For a further assay, the target named is T4, recombinant human PD-L2-Fc-biotin (human, UniProt Q9BQ51 20-220, biotin).
T4 chain: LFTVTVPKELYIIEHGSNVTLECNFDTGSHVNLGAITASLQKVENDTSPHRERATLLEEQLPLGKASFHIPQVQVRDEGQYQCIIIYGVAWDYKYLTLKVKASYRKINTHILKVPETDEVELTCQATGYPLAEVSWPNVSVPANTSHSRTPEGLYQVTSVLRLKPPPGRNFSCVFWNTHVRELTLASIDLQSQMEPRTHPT
Briefly: blocking of hPD-L2 binding to HEK293-hPD-1 cells. An outline of the steps:
(§3)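 Recombinant human PD-L2-Fc-biotin (5 ng/ml, 100 pM) was preincubated in 100 μl with serially diluted antibody (0.03 ng/ml-0.5 μg/ml) for 60 min at 4° C, and the mixture was then placed on 1.5×10⁵ HEK293 cells stably expressing human PD-1 for 30 min at 4° C. Ligand bound to the cells was detected by flow cytometry after 20 min at 4° C with fluorochrome-conjugated streptavidin, and control wells set the 0% and 100% binding levels. The IC50 was obtained by non-linear curve fitting in GraphPad Prism.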
The term IC50 denotes the point on the concentration scale where inhibition reaches its midpoint. Consider B3, for which the IC50 was determined as 0.026 nM.

B4: the IC50 turned out to be 0.029 nM.

As for B5, the concentration for half-maximal inhibition (IC50) is 0.013 nM.

In the case of B1, the half-maximal inhibitory concentration (IC50) amounted to 0.017 nM.

Consider B2, for which the concentration for half-maximal inhibition (IC50) came out at 0.012 nM.

A further assay deals with T1, human PD-L2 (full-length, on cells). The assay can be described thus: FACS, CHO-K1 expressing human PD-L2. In short, it runs like this:
as §1
B3 yielded a concentration giving a half-maximal response (EC50) of 0.765 nM.

B4 returned an EC50 of 0.873 nM.

B5 displayed an EC50 of 0.265 nM.

In the case of B1, the response was half-maximal at 0.338 nM (EC50).

As to B2, the concentration giving a half-maximal response (EC50) stood at 0.252 nM.

Another assay shares this target. The assay can be described thus: blocking of hPD-1 binding to CHO-K1/hPD-L2 cells. An outline of the steps:
(§4)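 Human PD-L2 was stably expressed in CHO-K1 cells, and 1.5×10⁵ of these cells were exposed to serially diluted antibody (0.25 ng/ml-4 μg/ml) for 30 min at 4° C and then washed. Recombinant human PD-1-mouse Fc was added at 0.5 μg/ml for 30 min at 4° C, followed by fluorochrome-conjugated anti-mouse IgG2a (1:200) for 20 min at 4° C.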
The molecule B3 came in with an IC50 of 0.93 nM.

As to B4, the IC50 stood at 1.2 nM.

The molecule B5 returned an IC50 of 0.37 nM.

B1: the half-inhibitory concentration (IC50) was found to be 0.4 nM.

Regarding B2, the IC50 amounted to 0.34 nM.

The next assay has the same target. The assay can be described thus: FACS binding to CHO-K1 cells expressing human PD-L2. This is another data set of the same source. In short, it runs like this: as §1
B3 showed a half-maximal effective concentration (EC50) of 1.6 nM.

In the case of B5, the EC50 was 0.42 nM.

With B1, the EC50 was 0.34 nM.

B2 gave an EC50 of 0.38 nM.

The next assay addresses T4, recombinant human PD-L2-Fc-biotin. Briefly: blocking of PD-L2 - PD-1 interaction (cell binding); low antigen concentration. An outline of the steps:
as §3
In the case of B3, the concentration for half-maximal inhibition (IC50) amounted to 0.0311 nM.

On to B4, for which the IC50 came out at 0.0375 nM.

Take B5: the IC50 was 0.0103 nM.

For B1, the IC50 is 0.0248 nM.

As for B2, the IC50 was found to be 0.0103 nM.

In another assay the target is T3, human PD-L2 (full-length, on cells). Briefly: hybridoma supernatant screen on cells expressing human PD-L2.
Take B3: the binding result is listed as “binds”.

For the molecule B4, the binding result is “binds”.

With B5, the binding result is reported as “binds”.

On to B1, for which the binding result is recorded as “binds”.

With B2, the binding result was “binds”.

Another assay concerns the target T1, human PD-L2 (full-length, on cells). Briefly: FACS blocking of PD-1 binding to CHO-K1/hPD-L2; high antigen concentration. An outline of the steps:
as §4
On to B3, for which the IC50 came to 0.58 nM.

Regarding B4, the IC50 was determined as 0.733 nM.

B5 gave a half-maximal inhibitory concentration (IC50) of 0.127 nM.

Molecule B1 displayed an IC50 of 0.464 nM.

Molecule B2 gave an IC50 of 0.198 nM.

The target in a further assay is T5, human PD-L1 (full-length, on cells) (human, UniProt Q9NZQ7 19-290).
T5 construct: whole, on cells; HEK293 cells stably expressing full-length human PD-L1
T5 sequence (Q9NZQ7 19-290): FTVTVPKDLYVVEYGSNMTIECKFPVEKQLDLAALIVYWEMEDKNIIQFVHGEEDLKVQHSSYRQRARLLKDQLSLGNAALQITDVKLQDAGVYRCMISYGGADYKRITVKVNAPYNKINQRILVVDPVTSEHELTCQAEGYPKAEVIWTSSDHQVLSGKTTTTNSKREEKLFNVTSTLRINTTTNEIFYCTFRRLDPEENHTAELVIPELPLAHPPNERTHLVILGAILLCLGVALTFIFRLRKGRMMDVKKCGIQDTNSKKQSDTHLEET
Briefly: FACS on HEK293 cells stably expressing full-length human PD-L1. The procedure: as §2
As to B3, the binding result is listed as “no binding (tested: 0.5 µg/ml)”.

For B4, the binding result is “no binding (tested: 0.5 µg/ml)”.

As for B5, the binding result is reported as “no binding (tested: 0.5 µg/ml)”.

Regarding B1, the binding result was “no binding (tested: 0.5 µg/ml)”.

B2: the binding result was “no binding (tested: 0.5 µg/ml)”.

The values are drawn from patent US20200369772A1 (ABBA THERAPEUTICS, published 2020).
